Where a chain is given by its changes, count along the chain named. In names and notes the source's numbering stands.
T1: Dcp2 from S. pombe, regulatory and catalytic domains, residues 1-243 (S. pombe, UniProt O13828 1-243)
T1 construct: Dcp2, S. pombe, residues 1-243 (NRD 1-95 and catalytic NUDIX domain 96-243); also called Dcp2-NRD-CTD; internal ID 223; source: E. coli BL21(DE3) CodonPlus-RIL, purified (Ni-NTA, TEV cleavage, second Ni-NTA, SEC)
T1 sequence (looked up): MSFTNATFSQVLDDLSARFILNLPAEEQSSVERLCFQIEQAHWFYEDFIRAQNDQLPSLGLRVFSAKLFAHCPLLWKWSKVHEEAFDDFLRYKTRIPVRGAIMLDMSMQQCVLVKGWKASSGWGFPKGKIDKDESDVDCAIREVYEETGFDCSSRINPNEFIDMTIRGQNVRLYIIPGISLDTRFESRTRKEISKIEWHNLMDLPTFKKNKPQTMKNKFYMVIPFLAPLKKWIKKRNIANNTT

T2: Dcp2 from S. pombe, regulatory and catalytic domains, residues 1-243, 5-fluorotryptophan labeled (S. pombe, UniProt O13828 1-243, the seven tryptophan residues are replaced with 5-fluorotryptophan)
T2 construct: Dcp2, S. pombe, residues 1-243 (NRD 1-95 and catalytic NUDIX domain 96-243); also used with isoleucine and methionine methyl 13C labeling; also called 5-fluorotryptophan labeled Dcp2-NRD-CTD; source: E. coli BL21(DE3) CodonPlus-RIL with 5-fluoroindole added, purified (Ni-NTA, TEV cleavage, second Ni-NTA, SEC)
T2 sequence (looked up): T1 sequence (looked up)

T3: Dcp1 from S. pombe, residues 1-127, 15N and 5-fluorotryptophan labeled (S. pombe, UniProt Q9P805 1-127, 5-fluorotryptophan at Trp 45 and 107)
T3 construct: Dcp1, S. pombe, UniProt Q9P805, residues 1-127; the tryptophans are replaced with 5-fluorotryptophan; also called 5-fluorotryptophan labeled Dcp1; source: E. coli BL21(DE3) CodonPlus-RIL with 5-fluoroindole added, purified (Ni-NTA, TEV cleavage, second Ni-NTA, SEC)
T3 sequence (looked up): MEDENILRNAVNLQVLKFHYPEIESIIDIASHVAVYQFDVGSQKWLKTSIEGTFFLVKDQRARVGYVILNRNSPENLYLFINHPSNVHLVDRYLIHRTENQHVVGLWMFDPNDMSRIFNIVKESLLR

B1: Dcp1 from S. pombe, residues 1-127 (natural protein, UniProt Q9P805 1-127, looked up)
chain: T3 sequence (looked up)
notes: Dcp1, S. pombe, UniProt Q9P805, residues 1-127; also called internal ID 48; source: E. coli BL21(DE3) CodonPlus-RIL, purified (Ni-NTA, TEV cleavage, second Ni-NTA, SEC)
B2: Dcp2 from S. pombe, N-terminal regulatory domain, residues 1-95 (domain or fragment, UniProt O13828 1-95, looked up)
chain: MSFTNATFSQVLDDLSARFILNLPAEEQSSVERLCFQIEQAHWFYEDFIRAQNDQLPSLGLRVFSAKLFAHCPLLWKWSKVHEEAFDDFLRYKTR
notes: Dcp2, S. pombe, residues 1-95 (N-terminal regulatory domain); Used unlabeled or 15N labeled, depending on the sample; also called Dcp2 NRD; NRD of Dcp2; source: E. coli BL21(DE3) CodonPlus-RIL, purified (Ni-NTA, TEV cleavage, second Ni-NTA, SEC)
B3: Dcp2 from S. pombe, N-terminal regulatory domain, residues 1-95, 5-fluorotryptophan labeled (domain or fragment, UniProt O13828 1-95, looked up)
chain: B2 chain
modifications: 5-fluorotryptophan at the three tryptophan residues (W43 among them)
notes: Dcp2, S. pombe, residues 1-95 (N-terminal regulatory domain); also called 5-fluorotryptophan labeled Dcp2 NRD; source: E. coli BL21(DE3) CodonPlus-RIL with 5-fluoroindole added, purified (Ni-NTA, TEV cleavage, second Ni-NTA, SEC)
B4: Dcp2 from S. pombe, residues 1-95, W43A assignment mutant (domain or fragment, UniProt O13828 1-95, looked up)
chain: B2 chain with W43A
notes: Dcp2, S. pombe, residues 1-95 with W43A; also called Dcp2 NRD W43A; internal ID 1070; source: E. coli BL21(DE3) CodonPlus-RIL, purified (Ni-NTA, TEV cleavage, second Ni-NTA, SEC)

Assays:
Experiment in all cases: NMR spectra of a prepared complex; Dcp1 and Dcp2 expressed separately, complex prepared with one partner NMR active; 303 K; 125 mM NaCl, 25 mM HEPES, pH 7.3, 1 mM DTT; 100-500 uM protein
Details in all cases: both partners purified
[1] = target: T1, Dcp2 from S. pombe, regulatory and …
[2] = target: T2, Dcp2 from S. pombe, regulatory and …
[3] = target: B1
[4] = target: T3, Dcp1 from S. pombe, residues 1-127, 15N …

binding result [1] | binding result [2] | binding result [3] | binding result [4] | Binder
binds | binds |  |  | B1
 |  | binds | binds | B2
 |  | binds |  | B3
 |  | binds |  | B4

— publication PMC10149471, “Assessing the applicability of ^19F labeled tryptophan residues to quantify protein dynamics” (Journal of Biomolecular Nmr, 2023)
